Measured values reported in article PMC4405178 (Biochemistry, 2015).

Molecular target: T1, full-length Ste2p V49D (Saccharomyces cerevisiae, UniProt D6VTK4 1-431, V49D)
T1 sequence (looked up): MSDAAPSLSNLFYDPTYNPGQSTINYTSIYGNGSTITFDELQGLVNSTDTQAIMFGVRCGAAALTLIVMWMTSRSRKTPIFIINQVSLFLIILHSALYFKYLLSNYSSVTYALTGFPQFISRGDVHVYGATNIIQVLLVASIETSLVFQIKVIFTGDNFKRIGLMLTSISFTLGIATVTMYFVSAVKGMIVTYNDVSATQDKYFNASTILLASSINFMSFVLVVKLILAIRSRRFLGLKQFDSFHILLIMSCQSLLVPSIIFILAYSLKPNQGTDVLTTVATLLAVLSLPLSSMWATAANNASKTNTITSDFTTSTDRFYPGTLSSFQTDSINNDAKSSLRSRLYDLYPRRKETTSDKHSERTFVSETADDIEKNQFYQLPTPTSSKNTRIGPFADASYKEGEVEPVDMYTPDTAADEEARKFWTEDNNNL
Experiment: flow cytometry on cells

B1: [K^7(NBD),Nle^12] α-factor (peptide)
chain: WHWLQLKPGQPMY
modifications: NBD (7-nitrobenz-2-oxa-1,3-diazol-4-yl) conjugated to the lysine at position 7; norleucine at position 12 in place of methionine
  Kd: 49 ± 20 nM
